pKd: −log10 of the molar value. “And” between values parts separate entries of the source, which are not always exact repeats. Equal values may be shown once.
Assays:
Assay in all cases: SPR
[1] = biological target: EVA-A(Y44A) (A. americanum)
[2] = biological target: EVA-A(DN) (Amblyomma americanum)
[3] = biological target: EVA-A(DC) (Amblyomma americanum)
[4] = biological target: EVA-A(L39P) (Amblyomma americanum)
[5] = biological target: EVA-A(1-98) (A. americanum)
[6] = biological target: EVA-A(21-102) (A. americanum)
[7] = biological target: EVA-A(L39P) (A. americanum)
[8] = biological target: EVA-A(Y44A) (Amblyomma americanum)
[9] = biological target: EVA-A(C8) (Amblyomma americanum)
[10] = biological target: EVA-A(C8) (A. americanum)

CCL18, sequence (P55774 21-89): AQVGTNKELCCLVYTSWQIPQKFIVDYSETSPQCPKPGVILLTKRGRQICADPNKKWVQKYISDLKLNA
CCL4, sequence (P13236 24-92): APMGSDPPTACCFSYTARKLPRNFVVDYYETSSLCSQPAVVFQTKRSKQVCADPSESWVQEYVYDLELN
CCL17, sequence (Q92583 24-94): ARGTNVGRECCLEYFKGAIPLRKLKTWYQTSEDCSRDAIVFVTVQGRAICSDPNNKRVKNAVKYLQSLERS
CCL3, sequence (P10147 24-92): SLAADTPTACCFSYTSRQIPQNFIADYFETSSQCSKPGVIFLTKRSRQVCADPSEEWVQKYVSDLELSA
CCL24, sequence (O00175 27-119): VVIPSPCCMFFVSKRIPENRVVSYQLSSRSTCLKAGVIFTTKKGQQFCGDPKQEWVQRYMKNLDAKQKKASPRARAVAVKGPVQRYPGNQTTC
CCL1, sequence (P22362 24-96): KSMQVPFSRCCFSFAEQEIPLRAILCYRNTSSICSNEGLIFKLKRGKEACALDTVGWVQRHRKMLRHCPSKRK
CCL19, sequence (Q99731 22-98): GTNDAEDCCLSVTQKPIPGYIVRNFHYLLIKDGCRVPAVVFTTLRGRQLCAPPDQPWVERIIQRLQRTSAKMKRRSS

Row | Substance | pKd [1] | koff [1] [s⁻¹] | kon [1] [M⁻¹ s⁻¹] | pKd [2] | pKd [3] | pKd [4] | kon [4] | pKd [5] | koff [5] [s⁻¹] | kon [5] [M⁻¹ s⁻¹] | pKd [6] | koff [6] [s⁻¹] | kon [6] [M⁻¹ s⁻¹] | pKd [7] | koff [7] [s⁻¹] | kon [7] [M⁻¹ s⁻¹] | pKd [8] | koff [8] | pKd [9] | pKd [10] | also measured
1 | CCL1 (from UniProt P22362 24-96) (ligand) | 7.30 | 0.00256 | 57000 | 6.16 and 6.43 and 6.50 | 6.49 and 6.62 and 6.19 | 7.35 and 7.32 and 7.10 | 19300 M⁻¹ s⁻¹ and 13100 M⁻¹ s⁻¹ and 19200 M⁻¹ s⁻¹ | 6.39 | 0.00168 | 6000 | 6.34 | 0.18 | 268000 | 7.24 | 0.00167 | 17000 | 7.52 and 7.17 and 7.29 | 0.00285 s⁻¹ and 0.00348 s⁻¹ and 0.00135 s⁻¹ |  |  | koff [3]: 0.00168 s⁻¹ and 0.00255 s⁻¹ and 0.00199 s⁻¹; koff [4]: 0.000863 s⁻¹ and 0.00063 s⁻¹ and 0.00153 s⁻¹
2 | CCL19 (from UniProt Q99731 22-98) (ligand) | 9.12 | 0.00036 | 490000 | 8.87 and 8.83 and 8.72 | 9.68 and 10.06 and 9.73 | 8.85 and 9.00 and 8.79 | 233000 M⁻¹ s⁻¹ and 348000 M⁻¹ s⁻¹ and 252000 M⁻¹ s⁻¹ | 9.80 | 3e-05 | 144000 | 8.80 | 0.00053 | 342000 | 8.87 | 0.00036 | 278000 | 9.17 and 9.19 and 9.03 | 0.000322 s⁻¹ and 0.000363 s⁻¹ and 0.000401 s⁻¹ | 7.88 and 7.81 and 7.71 | 7.79 | koff [2]: 0.000471 s⁻¹ and 0.000557 s⁻¹ and 0.000576 s⁻¹; kon [2]: 352000 M⁻¹ s⁻¹ and 373000 M⁻¹ s⁻¹ and 301000 M⁻¹ s⁻¹; koff [3]: 3.17e-05 s⁻¹ and 1.17e-05 s⁻¹ and 2.75e-05 s⁻¹; kon [3]: 151000 M⁻¹ s⁻¹ and 134000 M⁻¹ s⁻¹ and 147000 M⁻¹ s⁻¹; koff [4]: 0.000327 s⁻¹ and 0.000349 s⁻¹ and 0.000407 s⁻¹; koff [10]: 0.00345 s⁻¹; kon [10]: 245000 M⁻¹ s⁻¹; kon [8]: 477000 M⁻¹ s⁻¹ and 566000 M⁻¹ s⁻¹ and 428000 M⁻¹ s⁻¹
3 | CCL4 (from UniProt P13236 24-92) (ligand) | 9.18 | 0.0002 | 319000 | 8.37 and 8.38 and 8.20 | 8.39 and 7.75 | 9.54 and 9.56 and 9.48 | 724000 M⁻¹ s⁻¹ and 801000 M⁻¹ s⁻¹ and 890000 M⁻¹ s⁻¹ | 8.07 | 0.00087 | 165000 | 8.31 | 0.00218 | 461000 | 9.52 | 0.00023 | 805000 | 9.12 and 9.16 and 9.29 | 0.000169 s⁻¹ and 0.000191 s⁻¹ and 0.000236 s⁻¹ | 7.15 and 7.19 and 7.11 | 7.15 | koff [9]: 0.0133 s⁻¹ and 0.0132 s⁻¹ and 0.0382 s⁻¹; kon [9]: 188000 M⁻¹ s⁻¹ and 202000 M⁻¹ s⁻¹ and 489000 M⁻¹ s⁻¹; koff [2]: 0.00229 s⁻¹ and 0.00217 s⁻¹ and 0.00209 s⁻¹; kon [2]: 538000 M⁻¹ s⁻¹ and 516000 M⁻¹ s⁻¹ and 328000 M⁻¹ s⁻¹; koff [3]: 0.000873 s⁻¹ and 0.000943 s⁻¹ and 0.00091 s⁻¹; koff [4]: 0.000211 s⁻¹ and 0.000223 s⁻¹ and 0.000297 s⁻¹; koff [10]: 0.0215 s⁻¹; kon [10]: 293000 M⁻¹ s⁻¹; kon [8]: 224000 M⁻¹ s⁻¹ and 273000 M⁻¹ s⁻¹ and 460000 M⁻¹ s⁻¹
4 | CCL18 (from UniProt P55774 21-89) (ligand) | > 10.00 | < 0.0001 | 1.69e+06 | 12.25 and 12.64 and 12.26 | 12.14 and 11.38 and 11.56 | 11.36 and 11.06 and 10.56 | 3.31e+06 M⁻¹ s⁻¹ and 3.54e+06 M⁻¹ s⁻¹ and 4.37e+06 M⁻¹ s⁻¹ | > 10.00 | < 0.0001 | 443000 | > 10.00 | < 0.0001 | 1.59e+06 | > 10.00 | < 0.0001 | 3.74e+06 | 10.26 and 10.52 and 10.79 | 7.08e-05 s⁻¹ and 5.3e-05 s⁻¹ and 3.33e-05 s⁻¹ | 10.23 and 10.52 and 10.33 | > 10.00 | koff [9]: 5.57e-05 s⁻¹ and 2.29e-05 s⁻¹ and 3.83e-05 s⁻¹; kon [9]: 943000 M⁻¹ s⁻¹ and 758000 M⁻¹ s⁻¹ and 810000 M⁻¹ s⁻¹; koff [2]: 1.04e-06 s⁻¹ and 4.52e-07 s⁻¹ and 5.08e-07 s⁻¹; kon [2]: 1.86e+06 M⁻¹ s⁻¹ and 1.98e+06 M⁻¹ s⁻¹ and 921000 M⁻¹ s⁻¹; kon [3]: 496000 M⁻¹ s⁻¹ and 427000 M⁻¹ s⁻¹ and 406000 M⁻¹ s⁻¹; koff [10]: < 0.0001 s⁻¹; kon [10]: 837000 M⁻¹ s⁻¹; kon [8]: 1.28e+06 M⁻¹ s⁻¹ and 1.75e+06 M⁻¹ s⁻¹ and 2.05e+06 M⁻¹ s⁻¹
5 | CCL24 (from UniProt O00175 27-119) (ligand) | 7.16 | 0.00179 | 26000 | 7.71 and 7.68 | 7.63 and 7.51 and 7.53 | 8.03 and 8.05 and 7.98 | 91800 M⁻¹ s⁻¹ and 144000 M⁻¹ s⁻¹ and 96500 M⁻¹ s⁻¹ | 7.55 | 0.00111 | 36000 | 7.70 | 0.00091 | 46000 | 8.02 | 0.00121 | 111000 | 7.33 and 7.05 and 7.15 | 0.00131 s⁻¹ and 0.0022 s⁻¹ and 0.00184 s⁻¹ | 6.16 and 6.40 and 6.60 | 6.35 | kon [9]: 23800 M⁻¹ s⁻¹ and 14800 M⁻¹ s⁻¹ and 14400 M⁻¹ s⁻¹; koff [2]: 0.000922 s⁻¹ and 0.00125 s⁻¹ and 0.000564 s⁻¹; kon [2]: 47700 M⁻¹ s⁻¹ and 60300 M⁻¹ s⁻¹ and 28700 M⁻¹ s⁻¹; koff [3]: 0.00111 s⁻¹ and 0.000885 s⁻¹ and 0.000951 s⁻¹; kon [3]: 47000 M⁻¹ s⁻¹ and 28600 M⁻¹ s⁻¹ and 32100 M⁻¹ s⁻¹; koff [4]: 0.000856 s⁻¹ and 0.0013 s⁻¹ and 0.00101 s⁻¹; koff [10]: 0.00869 s⁻¹; kon [10]: 18000 M⁻¹ s⁻¹; kon [8]: 28200 M⁻¹ s⁻¹ and 24800 M⁻¹ s⁻¹ and 26000 M⁻¹ s⁻¹
6 | CCL17 (from UniProt Q92583 24-94) (ligand) | 7.21 |  |  | 8.98 and 8.99 |  | 8.48 and 8.49 and 7.80 |  | > 10.00 |  |  | 8.98 |  |  | 8.13 |  |  | 7.18 and 6.98 and 7.80 |  | 7.11 and 7.17 and 6.83 | 7.01 | 
7 | CCL3 (from UniProt P10147 24-92) (ligand) | 9.02 | 0.00044 | 566000 | 8.54 and 8.49 and 8.45 | 8.78 and 8.71 and 8.77 | 9.45 and 9.69 and 9.40 | 831000 M⁻¹ s⁻¹ and 1.78e+06 M⁻¹ s⁻¹ and 1.05e+06 M⁻¹ s⁻¹ | 8.75 | 0.00058 | 345000 | 8.49 | 0.00144 | 449000 | 9.49 | 0.0004 | 1.22e+06 | 8.92 and 9.33 | 0.000428 s⁻¹ and 0.000445 s⁻¹ and 0.000452 s⁻¹ | 7.44 and 7.36 and 7.39 | 7.39 | koff [2]: 0.00144 s⁻¹ and 0.00146 s⁻¹ and 0.00142 s⁻¹; kon [2]: 498000 M⁻¹ s⁻¹ and 452000 M⁻¹ s⁻¹ and 397000 M⁻¹ s⁻¹; koff [3]: 0.000578 s⁻¹ and 0.000636 s⁻¹ and 0.00061 s⁻¹; kon [3]: 345000 M⁻¹ s⁻¹ and 326000 M⁻¹ s⁻¹ and 363000 M⁻¹ s⁻¹; koff [4]: 0.000296 s⁻¹ and 0.000365 s⁻¹ and 0.000413 s⁻¹; koff [10]: 0.0464 s⁻¹; kon [10]: 1.08e+06 M⁻¹ s⁻¹; kon [8]: 357000 M⁻¹ s⁻¹ and 369000 M⁻¹ s⁻¹ and 973000 M⁻¹ s⁻¹
